One molecule from PMC5666606 (The EMBO Journal, 2017) can be followed below.

The target of assay [1] is T1, RBPJ-(53-474) (mouse, UniProt P31266 53-474). Kind of assay: ITC. (In ITC the heat of successive injections is recorded.)
Assay [2] concerns the target T1, RBPJ-(53-474). Put plainly: ITC. The source holds these as a separate data set.

T1 sequence (P31266 53-474): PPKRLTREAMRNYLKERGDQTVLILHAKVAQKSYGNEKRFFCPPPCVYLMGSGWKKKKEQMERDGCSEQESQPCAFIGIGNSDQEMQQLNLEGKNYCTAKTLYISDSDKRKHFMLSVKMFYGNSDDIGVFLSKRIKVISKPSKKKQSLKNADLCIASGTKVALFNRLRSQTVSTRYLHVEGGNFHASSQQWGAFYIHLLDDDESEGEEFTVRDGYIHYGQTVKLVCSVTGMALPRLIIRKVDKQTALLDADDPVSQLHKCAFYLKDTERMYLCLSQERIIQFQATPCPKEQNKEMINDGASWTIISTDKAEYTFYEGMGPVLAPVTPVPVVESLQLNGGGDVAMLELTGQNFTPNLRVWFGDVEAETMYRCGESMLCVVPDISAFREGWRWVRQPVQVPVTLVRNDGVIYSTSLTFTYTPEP

B1: L3MBTL3-(31-70) (domain or fragment, human, UniProt Q96JM7 31-70, looked up)
chain: SDLKFRVNEFGALEVITDENEMENVKKATATTTWMVPTAQ
One may read the stoichiometry N as a count of units in the complex or per binding partner. In general, Kd refers to the concentration at which binding is half-saturated. Read a low Kd as tighter binding. Consider B1, for which, in the assay with RBPJ-(53-474) [1], the “stoichiometry N” value was determined as 1. In the assay with RBPJ-(53-474) [2], this molecule yielded a Ka of 2.27e+06 M⁻¹, a Kd of 450 nM and a dH of -7.52 kcal/mol.
